Experimental data published in the DeepSol protein solubility set.

assay: soluble on expression in E. coli; label from the status in PepcDB or PDB records

Row | Sequence | soluble on expression in E. coli
1 | MSLNPKKYNGDHLDEKSREIMLKTIEFFENMGKAKLKEKASKREWYADFLEFIKENKIFYTLMTPPEYADGDPNVRWDTWRICDFSELLAFYSLDYWYTWQVTVLGLGPIWMSKNEKIKKEVAELLKNGAVFAFGLSEREHGADIYATETKLVPQPDGTYKAYGRKYYIGNSNVAAIISTFARIADPDGSLPDKPDKSRFAFFALRRDEKYYELIKNIVDAQMFVGDFLIHDYPVTEDDILEKGEEAWDAALNTVNVGKFNLGWASIGICTHAFYEAINHASKRRLYGMYVTDFPHIKRLFVDAYARLMAMKLFARRACDYMRVASREDRRYLLYSAMVKSKVTREGEEVINLLWDVIAAKGFEKDTYFEMAARHIRALPKLEGTVHVNMALILKFLPKYLFEPAEFPEVPKMDVPKHDEFLFNQGPSGGLSQVRFHDYQKVYDSFDFPNINVFKEQIATFKEMCMAAPPSPEQMRDFDFMVTWGEMFALLVYGHLILEAAKIYDVDKDLLEEIFDFMIRDFSKFAVELMAKPSATDKQIEYAKKMIKRPVPDKERFERVVKKVYSYADAYEMNEGHHHHHH | not soluble
2 | MSLNPRPGKVVIYSEPDVSEKCIEVFSDIQDCSSWSLSPVILIKVVRGCWILYEQPNFEGHSIPLEEGELELSGLWGIEDILERHEEAESDKPVVIGSIRHVVQDYRVSHIDLFTEPEGLGILSSYFDDTEEMQGFGVMQKTCSMKVHWGTWLIYEEPGFQGVPFILEPGEYPDLSFWDTEAAYIGSMRPLKMGGRKVEFPTDPKVVVYEKPFFEGKCVELETGMCSFVMEGGETEEATGDDHLPFTSVGSMKVLRGIWVAYEKPGFTGHQYLLEEGEYRDWKAWGGYNGELQSLRPILGDFSNAHMIMYSEKNFGSKGSSIDVLGIVANLKETGYGVKTQSINVLSGVWVAYENPDFTGEQYILDKGFYTSFEDWGGKNCKISSVQPICLDSFTGPRRRNQIHLFSEPQFQGHSQSFEETTSQIDDSFSTKSCRVSGGSWVVYDGENFTGNQYVLEEGHYPCLSAMGCPPGATFKSLRFIDVEFSEPTIILFEREDFKGKKIELNAETVNLRSLGFNTQIRSVQVIGGIWVTYEYGSYRGRQFLLSPAEVPNWYEFSGCRQIGSLRPFVQKRIYFRLRNKATGLFMSTNGNLEDLKLLRIQVMEDVGADDQIWIYQEGCIKCRIAEDCCLTIVGSLVTSGSKLGLALDQNADSQFWSLKSDGRIYSKLKPNLVLDIKGGTQYDQNHIILNTVSKEKFTQVWEAMVLYTEGHHHHHH | not soluble
3 | MSLNQASLERNELHNTIWKVANELRGSVDGWDFKQYVLGILFYRYISENMTHYINKEERKRDPSFDYAKLSDEKAERGRKHLIEQKGFFIPPSALFCNALKNACHNEDLNVTLQNIFNEIEKSSLGTPSEENVKGLFADLDVNSNKLGSSHQNRVEKLTKILEAIGGMQLGDYLKSGIDVFGDAYEYLMAMYASNAGKSGGEFFTPQEVSELLAKITLHGQESVNKVYDPCCGSGSLLLQFSKVLGDKNVSKGYFGQEINLTTYNLCRINMFLHDINYSKFHIAHGDTLLDPKHEDDEPFDAIVSNPPYSTKWVGDSNPILINDERFSPAGVLAPKNAADLAFTMHMLSYLSNSGTAAIVEFPGVLYRGNAEAKIREYLVKENVIDCVIALPDNLFFGTSIATCILVLKKNKQDDTTLFIDASKEFVKEGKKNKLKERNREKILQTYIERKEIKHFCALANIEKIKENDYNLSVNRYVEQEDTKEAIDIKALNSEIAQIVEKQSALRNRLESIIKELEGGQNEGHHHHHH | soluble
4 | MSLNQIYQLTKPKFINVKYQEEAIDQENHILIRPNYMAVCHADQRYYQGKRDPKILNKKLPMAMIHESCGTVISDPTGTYEVGQKVVMIPNQSPMQSDEEFYENYMTGTHFLSSGFDGFMREFVSLPKDRVVAYDAIEDTVAAITEFVSVGMHAMNRLLTLAHSKRERIAVIGDGSLAFVVANIINYTLPEAEIVVIGRHWEKLELFSFAKECYITDNIPEDLAFDHAFECCGGDGTGPAINDLIRYIRPQGTILMMGVSEYKVNLNTRDALEKGLILVGSSRSGRIDFENAIQMMEVKKFANRLKNILYLEEPVREIKDIHRVFATDLNTAFKTVFKWEEGHHHHHH | soluble
5 | MSLNRLSIPYSNKSLDYYFFVIQEASVKRAVLARSGEFQATNANFDNTRQLEQWQSLLLSRPSAIISDPIDSQAIVSAIRRYNREKIPVGIIDTPADGGDVAITVSFDNFQGGVMAAEEIVNRLITRYGRPKGTVLNCYGALASVAWRLRKEGMDSVFAKYPGITYLARPTDGQLEKMLSVTLSTLSEYPDLDAVHAPSDSPSRGIVTALQQKGRWKKIGEAGHVIFVNIDGEPIALKWIQDGYMDACISQDPVAYGEIAVDMIVKHALKGEAVPLGTYQDKKYFWESGEGHHHHHH | not soluble
6 | MSLNSKDIAKIVGVSRSTVSRVINNYPDIPQATREKVLKAIKEYNYYPNASARRLAGMKSSTLGIFIIDIKDNEKPHHVIENNEDLLYGNSYFSPFINAFIDQSNKAQYHVLVSTIYSSDELWKIQSAFYEKRIDGAVIIGSSSIDYSKIFEIMDKDSITVAVDLDMEKENTGTVMSVNINNYGGVSDAIDYLVELGHKDIAVITGDLNKLSGKIRFESFKDALLRHGLPLNNDFIAYGDFTENSGYEGMKKILASGKKPTAVFTSNDTMAIGAYRAIKEYGLKIPEDISVMGFDNSYISQYMSPPLTTVNVSLPEIAKCSIELLLDSINNKEIKNRQKTVNVQIVKRNSCKKEGHHHHHH | soluble
7 | MSLNTENIRIIALGGVGEIGKNLYVIEIDSDIFVVDAGLMHPENEMLGIDVVIPDISYLIERSDRVKAIFLTHGHEENIGGVFYCLNKLSVPVYGTKLTLALLKETLKQYGVNKKPDLREIHSKSVITFESTKVSFFKTNHSIPDSVGVSFKTSLGSIVCTGDFKFDQTPVLNQTSDIGEIAKIGNSGVLCLLSDSANAEKPGYTPSEALVGGEISDVMYNAENRVIIAVFASNFNRIQQVIDAALQNGRKLAVSGKNISAILQLAMKLGYVTADEDMFIPVQEVKKYPKREVAILTGDNHGEPLAALTRIAKQGHKQLDIEEGDTVLIASSPIPGQELVYSKAVDLLTRAGAQVVFAQKRVHVSGHGCQEELKLMLNLLKPKYLIPVNGEYRMQKAHSKLAEEIGMKRSDIFLIEKGDVVEFRGQNVKIGDKVHSGNILIDGLGVGDIGNIVLRDRRLLSQDGILIVVITLDKKKKHLVSGPEIITRGFVYVRESEQLIVEATELVRELVNESTENAVVEWSALKQTMREALNQFLYEKTKRKPMIIPIIMEEGHHHHHH | soluble
8 | MSLNTKLLILDDDIDILQMLKTVFIGEEMDIILESESEQALRFITTERPNVAIVDINLPRKSGLQVLQEAKKIDPGLSVIMTTGNKTTQNAIEAMKYGAYDYVTKPFDMNKLKSAVHKALECNLLSRKVRYTKDTKQLSEDEGHHHHHH | not soluble
9 | MSLNTQDFLAGYTKRFVDNKEEDMSLDEYLELCKTDPTAYANPAERLLMAIGEPELIDTRHDPVLSRIFSNKIIHHYEVFKDFYGMEEPIEQIVGFLKHAAQGLEETKQVLYLLGPVGGGKSSIAEKLKDLMERIPFYAIKGSPVFESPLSLFNPLEDGELLRERFGIPTRYLRYLMSPWAVKRLQEYNGDISKFRVIKVKPSRLKQIAIAKTEPGDENNQDISSLVGKVDIRKLEEFSQDDPDAYSYSGGLCRANRGLLEFVEMFKAPIKVLHPLLTATQEGNYNATEGLSAIPFEGIILAHSNESEWQSFRNNEGHHHHHH | not soluble
10 | MSLNTWNELTVHVNREAEEAVSNLLIETGSQGVAISDSADYLGQEDRFGELYPEVEQSDMIAITAYYPDTLDIEAVKADLADRLANFEGFGLATGSVNLDSQELVEEDWADNWKKYYEPARITHDLTIVPSWTDYEAKAGEKIIKMDPGMAFGTGTHPTTKMSLFALEQVLRGGETVIDVGTGSGVLSIASSLLGAKDIYAYDLDDVAVRVAQENIDMNPGTENIHVAAGDLLKGVQQEVDVIVANILADILIHLTDDAYRLVKDEGYLIMSGIISEKWDMVRESAEKAGFFLETHMVQGEWNACVFKKTDDISGVIGGEGHHHHHH | soluble
11 | MSLNVKIAALASHSALDVFDGAKDEGFQTIGLCKKGRERPYLEFKAIMDKCIILEDFKEIISDKVQSILLSENAIIVPNRSLAVYVGYDGIEKMKTKVFGNRYMLRWEERIGEKNYYKILNEAKISIPKLFKPEEIDRPVIVKLPEAKRKVERGFFFAVNKEDFEAKLNELLRNNVIDNEGLKNMVIEEFVFGAHFNLNYFYSPIFNRLELISVDRRIQSDWDSLYRLPADIQIKLGRIPKLIEVGHEPVTIRESLLEKVFEIGYRFVDATQKLEPPGIIGPFTLQVMVTPDLDLVVYDVAPRIGGGTNVYMGTGSQYSKFYFGKPISLGRRIALEIKHAIINNLTEKILTEGHHHHHH | soluble
12 | MSLNVRIYCRASTEGQHADRALTSLREFSKSKGWQIAGEYIENASGAKLERVELMRLLSEAQSGDLLLVEAIDRLSRLEHSAWVELKDTLNRKGLIIVSMDLPTSWQMVEMAGNDLTSGILRAVNAMLIDILATMARQDYETRRKRQQQGIERAKSEGIYIGRAKNQEAREIVREMLEQGVKPELIMKAAGISRATYYRIKNELLIVKSEGHHHHHH | soluble
13 | MSLNYNAPHRHAVIELSQSAVVHNLKVIKENTHAKEIMAVLKANAFSHGLPEMASLSITAGATRFGMAMLDEALILRDLGYIQPIDVLGLTDPRYARLAAERNITLAFSTKESIKAAAEQLAGTGLTLKVSLPVDTGLNRIGFKSREDLVAAIQEVSAQDTLIFQSMWTHFATADTPNVDYVDFQISEWQRLTHDLPVEPNEKHFANTGIATWYPEKINTDIVRLGIGLFGINGSVPIMSMPFELIPALSLKAKVVNSKPLKKGDAVGYGAEYHAPNDGYLITIPIGHSDGYPFNGSGMRALVADGQIGHIVGGVAMDQSMILVTNPVAVGTTVTLIGRVGDQSITMQDLAEHTQSSIVALMNDFAPRLQRIIVSEGHHHHHH | not soluble
14 | MSLPDHSLFRLRILPWCIALAMSGSYSSVWAEDDIQFDSRFLELKGDTKIDLKRFSSQGYVEPGKYNLQVQLNKQPLAEEYDIYWYAGEDDVSKSYACLTPELVAQFGLKEDVAKNLQWSHDGKCLKPGQLEGVEIKADLSQSALVISLPQAYLEYTWPDWDPPSRWDDGISGIIADYSITAQTRHEENGGDDSNEISGNGTVGVNLGPWRMRADWQTNYQHTRSNDDDDEFGGDDTQKKWEWSRYYAWRALPSLKAKLALGEDYLNSDIFDGFNYVGGSVSTDDQMLPPNLRGYAPDISGVAHTTAKVTVSQMGRVIYETQVPAGPFRIQDLGDSVSGTLHIRIEEQNGQVQEYDISTASMPYLTRPGQVRYKIMMGRPQEWGHHVEGGFFSGAEASWGIANGWSLYGGALGDENYQSAALGVGRDLSTFGAVAFDVTHSHTKLDKDTAYGKGSLDGNSFRVSYSKDFDQLNSRVTFAGYRFSEENFMTMSEYLDASDSEMVRTGNDKEMYTATYNQNFRDAGVSVYLNYTRHTYWDREEQTNYNIMLSHYFNMGSIRNMSVSLTGYRYEYDNRADKGMEGHHHHHH | not soluble
15 | MSLPGFEISAQFRFLLSVTALLVREEFGRAPSLGQTQSLLQNGFSSAVVEKVNQNLVSHLNVLDGLQPFMGRPRLHPEGPKDASRRIGPGDQEVKKLSPAMPSEQGEDYWNLLVEFPDSLSISEATLKIVTYHYFSMAGNNKFDGDKTRMGAPGIRFPGKGYAATEHIWIREGSSLLRSLLTSLPTSWVKGEGLPAWADRTAQKSRTGQQQFHALWEATWSSNTVVSYWEDGYLTGVRVGGIPPAWWPDIPNTKEGEKALKLWWDQRNEKDPLYFYLKNKKGEPKAQRIDFGRDGIDLAVEWAAEAKMMDLVEKTYKNVLPVDSYPTVDGDDEGIDKYQLVFFRHQVEGTASSPSIRASEVFLADRSVWAFDLSCDEQLRLRDNAQLVRDVYITLLGVFRRKSAADASREVATGWGAAVLDSLAVSQSDASDAYWRGVTDVYQKYLADLRVGEEITEELYRGIRSAALEAYDEVTAPYLAQYANEIYYVRASLVRSVNSKINTARDEGIGRIKEESNE | not soluble
